Kd and IC50 data for 5 sequences are collected here from the Immune Epitope Database (IEDB).

Experiment [1] addresses HLA-C*08:02. Kind of experiment: IEDB peptide-MHC binding, purified MHC/direct/fluorescence; filed as Kd, often an IC50 or EC50 that approximates it; ≥ and ≤ were set here for values at or beyond the usual limits of such assays.
The target in experiment [2] is HLA-B*48:01. Described as above. Conditions: source organism: Burkholderia mallei.
The target in experiment [3] is HLA-B*58:01. The experiment is described as above. Conditions: source organism: Zaire ebolavirus.
In experiment [4] the target is HLA-A*24:03. The description is as above. Conditions: source organism: Zaire ebolavirus.
The target of experiment [5] is HLA-A*02:03. Described as above. Conditions: source organism: Zaire ebolavirus.
For experiment [6], the target named is HLA-A*02:16. Described as above. The settings on record: source organism: Zaire ebolavirus.
Experiment [7] deals with HLA-A*23:01. Described as above. The settings on record: source organism: Zaire ebolavirus.
Experiment [8] addresses HLA-A*02:19. The experiment is described as above. Conditions: source organism: Zaire ebolavirus.
The target in experiment [9] is HLA-A*02:12. The experiment is described as above. Conditions: source organism: Zaire ebolavirus.
Experiment [10] has as its target HLA-A*24:02. Kind of experiment: IEDB peptide-MHC binding, purified MHC/competitive/fluorescence; ≥ and ≤ were set here for values at or beyond the usual limits of such assays. The settings on record: source organism: Zaire ebolavirus.
The target of experiment [11] is HLA-B*15:01. The experiment is described as above.
Experiment [12] addresses HLA-B*07:02. The experiment is described as above. Conditions: source organism: Zaire ebolavirus.
Experiment [13] deals with HLA-A*02:01. The description is as above. The settings on record: source organism: Zaire ebolavirus.
The target in experiment [14] is HLA-A*11:01. The description is as above. Conditions: source organism: Zaire ebolavirus.
In experiment [15] the target is HLA-A*01:01. Described as above.
The target of experiment [16] is HLA-A*03:01. The description is as above. Conditions: source organism: Zaire ebolavirus.
The target in experiment [17] is HLA-B*39:01. The experiment can be described thus: IEDB peptide-MHC binding, purified MHC/competitive/fluorescence; filed as Kd, often an IC50 or EC50 that approximates it; ≥ and ≤ were set here for values at or beyond the usual limits of such assays. Conditions: source organism: Zaire ebolavirus.
The target in experiment [18] is HLA-B*46:01. Described as above. Conditions: source organism: Zaire ebolavirus.
Experiment [19] deals with HLA-B*57:01. The experiment is described as above. The settings on record: source organism: Zaire ebolavirus.
Experiment [20] has as its target HLA-A*02:01. The experiment is described as above. Conditions: source organism: Zaire ebolavirus.
In experiment [21] the target is HLA-B*35:01. The description is as above. The settings on record: source organism: Zaire ebolavirus.
In experiment [22] the target is HLA-A*69:01. The experiment is described as above. Conditions: source organism: Zaire ebolavirus.
Experiment [23] concerns the target HLA-A*26:01. Described as above. The settings on record: source organism: Zaire ebolavirus.
For experiment [24], the target named is HLA-B*27:03. The description is as above. Conditions: source organism: Zaire ebolavirus.
For experiment [25], the target named is HLA-A*80:01. The experiment can be described thus: IEDB peptide-MHC binding, purified MHC/direct/fluorescence; filed as Kd, often an IC50 or EC50 that approximates it; ≥ and ≤ were set here for values at or beyond the usual limits of such assays. Conditions: source organism: Francisella tularensis subsp. holarctica LVS.
The target of experiment [26] is HLA-A*01:01. The description is as above. Conditions: source organism: Francisella tularensis subsp. holarctica LVS.
Experiment [27] deals with HLA-C*15:02. Described as above. Conditions: source organism: Vibrio vulnificus YJ016.
In experiment [28] the target is HLA-B*15:01. The experiment is described as above. The settings on record: source organism: Vibrio vulnificus CMCP6.
The target in experiment [29] is HLA-B*07:02. The experiment is described as above. Conditions: source organism: Vibrio vulnificus.
For experiment [30], the target named is HLA-C*14:02. The description is as above. The settings on record: source organism: Vibrio vulnificus YJ016.
For experiment [31], the target named is HLA-C*12:03. The experiment is described as above. Conditions: source organism: Vibrio vulnificus YJ016.
Experiment [32] deals with HLA-B*51:01. The description is as above. Conditions: source organism: Vibrio vulnificus.
Experiment [33] has as its target HLA-B*45:06. Kind of experiment: IEDB peptide-MHC binding, purified MHC/competitive/fluorescence; filed as Kd, often an IC50 or EC50 that approximates it; ≥ and ≤ were set here for values at or beyond the usual limits of such assays. Conditions: source organism: Vibrio vulnificus YJ016.
Experiment [34] has as its target HLA-C*06:02. Described as above. Conditions: source organism: Vibrio vulnificus YJ016.
Experiment [35] has as its target HLA-B*15:42. The description is as above. Conditions: source organism: Vibrio vulnificus YJ016.
Experiment [36] addresses HLA-B*83:01. The description is as above. Conditions: source organism: Vibrio vulnificus YJ016.
Setting [37] is: source organism: Zaire ebolavirus.
Where [38] appears, read: source organism: Sudan ebolavirus.

Usually Kd stands for the free concentration of one partner at which half of the binding sites on the other are occupied at equilibrium, for simple one-to-one binding. Lower therefore signals tighter binding. As usually defined, the IC50 is the concentration that gives 50% inhibition. A high value points to lower potency.

FQPQSGNAM: the Kd is 0.576 µM in [1] (source organism: Burkholderia mallei NCTC 10229) and 2.53 µM in experiment [2].
Turning to TVAPPAPVY, the Kd was 1.1 µM in [3]; at least 20 µM in [4]; at least 20 µM in experiment [5]; at least 20 µM in experiment [6]; at least 20 µM in experiment [7]; at least 20 µM in experiment [8]. The Kd was at least 20 µM in [9]; at least 20 µM in [17]; at least 20 µM in experiment [18]; at least 20 µM in experiment [19]; at least 20 µM in experiment [20]; 0.0002 µM in experiment [21]. Besides, the Kd in [22], in [23] and in [24] was at least 20 µM throughout. For the same sequence, the IC50 is 5.17 µM in experiment [10]; 8.09 µM in [11] (setting [37]); at least 138 µM in [12]; at least 119 µM in experiment [13]; 0.276 µM in experiment [14]; 18.2 µM in experiment [15] (setting [37]). The sequence further came in with an IC50 in experiment [16] of 6.32 µM.
With LSDNLSLVY, the results for the Kd in experiment [25], in experiment [1] (source organism: Francisella tularensis subsp. tularensis FSC198) and in experiment [26] were 0.168 µM, 0.552 µM and at most 0.001 µM, respectively.
Consider YLRKHIRAL, for which the Kd in experiment [27] was at least 20 µM; in experiment [28] it was 0.024 µM; in experiment [29], 0.003 µM; in experiment [30], 0.099 µM; in experiment [31], 0.193 µM; in experiment [32], at least 20 µM. In addition, the Kd was at least 5 µM in experiment [33], 0.482 µM in experiment [34], at least 5 µM in [35] and at least 5 µM in experiment [36].
For TSSYYATSY, the half-maximal inhibitory concentration (IC50) in [11] (setting [38]) worked out at 14.3 µM; in experiment [15] (setting [38]), 2.01 µM.
